Data reported in the supplement of paper PMC7877785.
± gives the uncertainty stated by the source.

Assay: self-splicing fitness, log relative to wild type (ln ratio); higher = more splicing; Tetrahymena group I intron in knt gene, E. coli kanamycin selection, DiMSum; sequences stand for … in CUCUCU…GGAGGGAAAAGUUAUCAGGCAUGCACCUGGUAGCUAGUCUUUAAACCAAUAGAUUGCAUCGGUUUAAAAGGCAAGACCGUCAAAUUGCGGGAAAGGGGUCAACAGCCGUUCAGUACCAAGUCUCAGGGGAAACUUUGAGAUGGCCUUGCAAAGGGUAUGGUAAUAAGCUGACGGACAUGGUCCUAACCACGCAGCCAAGUCCUAAGUCAACAGAUCUUCUGUUGAUAUGGAUGCAGUUCACAGACUAAAUGUCGGUCGGGGAAGAUGUAUUCUUCUCAUAAGAUAUAGUCGGACCUCUCCUUAAUGGGAGCUAGCGGAUGAAGUGAUGCAACACUGGAGCCGCUGGGAACUAAUUUGUAUGCGAAAGUAUAUUGAUUAGUUUUGGAGUACUCGUGGUCG
Method in brief: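 The eight P1ex-region nucleotides of an intron in the knt kanamycin-resistance gene on pET-22b(+) were all randomised and the library put into E. coli BL21(DE3). Six replicate transformations were grown overnight at 37°C or 30°C on LB agar with or without 25 μg/mL kanamycin, together with 100 μg/mL carbenicillin, 50 μM IPTG and 0.2% rhamnose. Colonies were pooled and amplicon-sequenced on an Illumina HiSeq 2500. Fitness from DiMSum is the error-weighted combination of wild-type-normalised replicate fold changes, kanamycin over none.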

Row | Sequence | self-splicing fitness (ln) (30 °C) | self-splicing fitness (ln) (37 °C)
1 | GUAAAGCAAUAUUACGGUGC | -2.22 ± 0.083 | -0.36 ± 0.083
2 | UAUCAGCAAUAUUACGAGGC | – | -2.77 ± 0.37
3 | AAGGAGCAAUAUUACGCGAC | -2.44 ± 0.41 | -1.54 ± 0.35
4 | UUAAAGCAAUAUUACGCUCU | -0.795 ± 0.15 | 0.21 ± 0.14
5 | UGGAAGCAAUAUUACGAUUC | -3.18 ± 0.3 | –
6 | CAUUAGCAAUAUUACGUCAG | -0.381 ± 0.091 | -0.0898 ± 0.098
7 | CUCCAGCAAUAUUACGAAGU | -3.59 ± 0.16 | -2.98 ± 0.26
8 | UUUGAGCAAUAUUACGCAUG | -0.647 ± 0.12 | -0.524 ± 0.19
9 | UCAUAGCAAUAUUACGCACG | -2.05 ± 0.11 | -0.462 ± 0.13
10 | CCAGAGCAAUAUUACGCGCA | -3.16 ± 0.25 | –
11 | UUCCAGCAAUAUUACGCAGC | -3.77 ± 0.33 | -2.31 ± 0.35
12 | CAUUAGCAAUAUUACGAAUG | -2.67 ± 0.19 | -2.28 ± 0.3
13 | GCGUAGCAAUAUUACGAAUG | -1.32 ± 0.11 | -0.603 ± 0.13
14 | UACCAGCAAUAUUACGAGCU | -3.29 ± 0.21 | -2.7 ± 0.24
15 | UGCGAGCAAUAUUACGUCGC | -1.88 ± 0.15 | -2.32 ± 0.23
16 | AAUAAGCAAUAUUACGUACG | -0.966 ± 0.14 | -0.239 ± 0.17
17 | AAUCAGCAAUAUUACGAUUA | -0.229 ± 0.088 | -0.426 ± 0.088
18 | AUCAAGCAAUAUUACGAACC | -1.05 ± 0.18 | -0.734 ± 0.25
19 | GCGCAGCAAUAUUACGCUCG | -3.65 ± 0.38 | -2.89 ± 0.34
20 | CCUAAGCAAUAUUACGCGGU | -2.54 ± 0.13 | -3.06 ± 0.18
21 | GGUCAGCAAUAUUACGUCGG | -3.9 ± 0.36 | -0.891 ± 0.19
22 | CUCUAGCAAUAUUACGAUGG | -3.61 ± 0.19 | -1.91 ± 0.14
23 | UACGAGCAAUAUUACGGAAA | – | -1.29 ± 0.32
24 | GGCGAGCAAUAUUACGGAGG | -2.52 ± 0.34 | -1.9 ± 0.45
25 | GCCGAGCAAUAUUACGGCAC | -2.24 ± 0.19 | -1.71 ± 0.23

Row | Sequence | self-splicing fitness (ln) (30 °C) | self-splicing fitness (ln) (37 °C)
26 | GAAGAGCAAUAUUACGCGUA | -3.68 ± 0.37 | -2.05 ± 0.22
27 | UUUGAGCAAUAUUACGUGCA | -3.05 ± 0.21 | -1.96 ± 0.18
28 | UCGUAGCAAUAUUACGUUUA | -1.5 ± 0.085 | -0.934 ± 0.08
29 | UAGUAGCAAUAUUACGAAUA | -1.33 ± 0.23 | -0.977 ± 0.21
30 | UACAAGCAAUAUUACGAGUC | -3.06 ± 0.11 | -1.93 ± 0.15
31 | UCGUAGCAAUAUUACGAGAG | -4.38 ± 0.46 | -1.89 ± 0.25
32 | UCCGAGCAAUAUUACGCCGG | -2.87 ± 0.36 | -2.15 ± 0.28
33 | GCACAGCAAUAUUACGAUAU | -0.993 ± 0.056 | -0.54 ± 0.071
34 | CAAUAGCAAUAUUACGUUCA | -3.43 ± 0.25 | -2.59 ± 0.24
35 | GCAUAGCAAUAUUACGAUUG | -2.38 ± 0.14 | -1.67 ± 0.15
36 | GCGAAGCAAUAUUACGUUUU | -3.16 ± 0.12 | -2.5 ± 0.17
37 | AGCCAGCAAUAUUACGGGUA | -1.59 ± 0.094 | -1.08 ± 0.092
38 | GUGAAGCAAUAUUACGAGCA | 0.204 ± 0.1 | -0.115 ± 0.14
39 | AACGAGCAAUAUUACGAGGA | -2.36 ± 0.28 | -2.34 ± 0.42
40 | GGGUAGCAAUAUUACGGUGU | -1.09 ± 0.095 | -0.365 ± 0.12
41 | UGAAAGCAAUAUUACGACUA | -0.403 ± 0.08 | 0.139 ± 0.11
42 | AUAUAGCAAUAUUACGUGCG | -0.942 ± 0.094 | -0.942 ± 0.13
43 | UCAUAGCAAUAUUACGCAUC | -3.59 ± 0.3 | -3.1 ± 0.33
44 | UCGUAGCAAUAUUACGUGGA | -2.39 ± 0.16 | -2.36 ± 0.13
45 | UACGAGCAAUAUUACGGUUU | -3.06 ± 0.17 | -2.32 ± 0.18
46 | UUGGAGCAAUAUUACGCCCG | -1.94 ± 0.45 | –
47 | AACCAGCAAUAUUACGGCCA | -0.365 ± 0.067 | -0.114 ± 0.085
48 | CUCCAGCAAUAUUACGUCUG | -3.51 ± 0.17 | -2.54 ± 0.18
49 | CCCCAGCAAUAUUACGGAUU | -4.3 ± 0.16 | -2.37 ± 0.13
